± gives the standard error. For some of these results: Fewer inactive variants are shown than the library holds.
B1: glmS ribozyme (parent)
chain: AUAAAAGCGCCAGAACUACAGAAAUGUAGUUGACGAGGAGGAGGUUUAUCGAAUUUUCGGCGGAUGCCUCCAAA

Experiments:
Conditions in all cases: with glucosamine-6-phosphate
glucosamine-6-phosphate [1] = variants of: B1; experiment: kcat; higher = faster cleavage; RNA array
Outline: (§1)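 Barcoded ribozyme variants on sequenced MiSeq chips were transcribed in situ by E. coli RNA polymerase and followed at 37 °C through a hybridised Cy3 probe. Glucosamine-6-phosphate at 40 μM to 10 mM in HEPES/KCl/Mg(OAc)2 buffer was flowed in, and tiles were imaged over ~14 h. Signals were normalised to baseline and to non-cleaving reference variants, and per-tile medians were fit to one- or two-exponential decays to give kobs. Weighted Michaelis–Menten fits across concentrations gave kcat and KM.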

glucosamine-6-phosphate [2] = variants of: B1; experiment: self-cleavage kobs at 40 uM GlcN6P; higher = faster cleavage; RNA array
Outline: as §1

glucosamine-6-phosphate [3] = variants of: B1; experiment: KM; higher = weaker cofactor use; RNA array
Outline: as §1

glucosamine-6-phosphate [4] = variants of: B1; experiment: self-cleavage kobs at 640 uM GlcN6P; higher = faster cleavage; RNA array
Outline: as §1

glucosamine-6-phosphate [5] = variants of: B1; experiment: self-cleavage kobs at 10000 uM GlcN6P; higher = faster cleavage; RNA array
Outline: as §1

glucosamine-6-phosphate [6] = variants of: B1; experiment: self-cleavage kobs at 2500 uM GlcN6P; higher = faster cleavage; RNA array
Outline: as §1

glucosamine-6-phosphate [7] = variants of: B1; experiment: self-cleavage kobs at 160 uM GlcN6P; higher = faster cleavage; RNA array
Outline: as §1

| Variant | kcat (glucosamine-6-phosphate [1]) | self-cleavage kobs at 40 uM GlcN6P (glucosamine-6-phosphate [2]) | KM (glucosamine-6-phosphate [3]) | self-cleavage kobs at 640 uM GlcN6P (glucosamine-6-phosphate [4]) | self-cleavage kobs at 10000 uM GlcN6P (glucosamine-6-phosphate [5]) | self-cleavage kobs at 2500 uM GlcN6P (glucosamine-6-phosphate [6]) | self-cleavage kobs at 160 uM GlcN6P (glucosamine-6-phosphate [7]) |
| --- | --- | --- | --- | --- | --- | --- | --- |
| G29U C61A | 1.26e-05 ± 2.3e-06 s⁻¹ | < 1e-05 s⁻¹ |  |  |  |  |  |
| U30A C50A A52G | < 1e-05 s⁻¹ |  | 39.4 ± 20 µM | < 1e-05 s⁻¹ | < 1e-05 s⁻¹ |  |  |
| G29U C58U | 0.000107 ± 1.1e-05 s⁻¹ |  | 3710 ± 980 µM |  | 7.71e-05 ± 8.8e-06 s⁻¹ | 4.57e-05 ± 9.1e-06 s⁻¹ |  |
| G29U U57C | 6.81e-05 ± 7.7e-06 s⁻¹ |  | 3360 ± 1100 µM |  | 5.13e-05 ± 6.5e-06 s⁻¹ | 2.73e-05 ± 7.7e-06 s⁻¹ |  |
| G29U G38U U69G | 7.45e-05 ± 3.4e-05 s⁻¹ |  |  | 0.00014 ± 6.1e-05 s⁻¹ |  | 0.000102 ± 4.6e-05 s⁻¹ | 9.11e-05 ± 1.8e-05 s⁻¹ |
| G29C U30A | 0.000322 ± 1.4e-05 s⁻¹ |  | 2880 ± 230 µM | 5.97e-05 ± 1.4e-05 s⁻¹ | 0.000253 ± 4.6e-05 s⁻¹ | 0.000141 ± 3.8e-05 s⁻¹ |  |
| C16U G66U | 0.00129 ± 0.00016 s⁻¹ | 3.86e-05 ± 7.8e-06 s⁻¹ | 1550 ± 340 µM | 0.000375 ± 4.5e-05 s⁻¹ | 0.00105 ± 0.00011 s⁻¹ | 0.000956 ± 0.00011 s⁻¹ | 9.95e-05 ± 2e-05 s⁻¹ |
| G29U C50A G60U | 1e-05 ± 4.9e-06 s⁻¹ |  |  |  |  | < 1e-05 s⁻¹ |  |
| G29U C71G | 0.000186 ± 4.6e-05 s⁻¹ | 3.23e-05 ± 9.4e-06 s⁻¹ |  | 8.34e-05 ± 7.2e-06 s⁻¹ | 0.000186 ± 1.9e-05 s⁻¹ | 0.000186 ± 2.6e-05 s⁻¹ | 6.19e-05 ± 9.3e-06 s⁻¹ |
| U30A A52G | 0.00117 ± 0.00025 s⁻¹ |  | 5730 ± 1500 µM | 0.000114 ± 1.2e-05 s⁻¹ | 0.000737 ± 0.00012 s⁻¹ | 0.00054 ± 0.00022 s⁻¹ | 4.07e-05 ± 1.7e-05 s⁻¹ |
| U30A A36U | < 1e-05 s⁻¹ |  |  | < 1e-05 s⁻¹ |  |  |  |
| G29U U46C | 0.000262 ± 1.5e-05 s⁻¹ |  | 1090 ± 140 µM | 9.83e-05 ± 1.4e-05 s⁻¹ | 0.000242 ± 2.9e-05 s⁻¹ | 0.000156 ± 4.3e-05 s⁻¹ | 3.52e-05 ± 1.6e-05 s⁻¹ |
| G29U U46G | 0.00127 ± 0.00012 s⁻¹ | 3.07e-05 ± 9.8e-06 s⁻¹ | 2110 ± 340 µM | 0.000259 ± 5e-05 s⁻¹ | 0.00106 ± 0.00013 s⁻¹ | 0.000689 ± 0.00011 s⁻¹ | 9.52e-05 ± 2e-05 s⁻¹ |
| C16U G37C | 1.3e-05 ± 3e-06 s⁻¹ | < 1e-05 s⁻¹ |  |  |  |  |  |
| C16U G38U C71U | 1.14e-05 ± 2e-06 s⁻¹ |  |  |  |  |  |  |
| G29U G40C | 0.000254 ± 6.3e-05 s⁻¹ |  |  | 0.000105 ± 2.4e-05 s⁻¹ | 0.000281 ± 5.2e-05 s⁻¹ | 0.000138 ± 3.6e-05 s⁻¹ |  |

| Variant | kcat (glucosamine-6-phosphate [1]) | self-cleavage kobs at 40 uM GlcN6P (glucosamine-6-phosphate [2]) | KM (glucosamine-6-phosphate [3]) | self-cleavage kobs at 640 uM GlcN6P (glucosamine-6-phosphate [4]) | self-cleavage kobs at 10000 uM GlcN6P (glucosamine-6-phosphate [5]) | self-cleavage kobs at 2500 uM GlcN6P (glucosamine-6-phosphate [6]) | self-cleavage kobs at 160 uM GlcN6P (glucosamine-6-phosphate [7]) |
| --- | --- | --- | --- | --- | --- | --- | --- |
| G29U G40A | 0.000509 ± 4.9e-05 s⁻¹ | 2.61e-05 ± 7.8e-06 s⁻¹ | 859 ± 180 µM | 0.000221 ± 3.7e-05 s⁻¹ | 0.000441 ± 4.7e-05 s⁻¹ | 0.000464 ± 6.4e-05 s⁻¹ | 7.2e-05 ± 1.3e-05 s⁻¹ |
| C16U U46A U54G C70A | 0.000156 ± 2.4e-05 s⁻¹ |  | 743 ± 300 µM | 6.86e-05 ± 2.2e-05 s⁻¹ | 0.000124 ± 5e-05 s⁻¹ | 0.000143 ± 3.9e-05 s⁻¹ |  |
| U30A G32A | 0.00147 ± 0.00062 s⁻¹ |  |  | 0.000192 ± 3.2e-05 s⁻¹ | 0.0012 ± 0.00022 s⁻¹ | 0.000485 ± 9.6e-05 s⁻¹ | 0.000109 ± 2.5e-05 s⁻¹ |
| G29A A64G | 0.0066 ± 0.0018 s⁻¹ | 0.000101 ± 2.6e-05 s⁻¹ | 3900 ± 1500 µM | 0.000967 ± 0.00022 s⁻¹ | 0.00532 ± 0.00092 s⁻¹ | 0.00217 ± 0.00041 s⁻¹ | 0.000242 ± 6.6e-05 s⁻¹ |
| G29A A64C | < 1e-05 s⁻¹ | < 1e-05 s⁻¹ |  |  |  |  | < 1e-05 s⁻¹ |
| G29A A52U | 0.0001272 ± 9.8e-07 s⁻¹ | < 1e-05 s⁻¹ | 2770 ± 58 µM | 2.42e-05 ± 1.1e-05 s⁻¹ | 9.97e-05 ± 1.3e-05 s⁻¹ | 5.99e-05 ± 1.4e-05 s⁻¹ |  |
| G29A A52G | 0.000368 ± 9e-05 s⁻¹ |  | 3290 ± 1300 µM | 5.31e-05 ± 8.1e-06 s⁻¹ | 0.000255 ± 3.8e-05 s⁻¹ | 0.000207 ± 2.8e-05 s⁻¹ |  |
| U30A G40A | 0.0022 ± 0.0011 s⁻¹ | 4.53e-05 ± 1.6e-05 s⁻¹ |  | 0.000134 ± 5.6e-05 s⁻¹ | 0.0014 ± 0.00025 s⁻¹ | 0.000927 ± 0.0002 s⁻¹ | 7.47e-05 ± 1.6e-05 s⁻¹ |
| C16U U65G C67G | 0.0015 ± 8.8e-05 s⁻¹ | 3.76e-05 ± 1.7e-05 s⁻¹ | 1420 ± 160 µM | 0.000493 ± 0.00013 s⁻¹ | 0.00128 ± 0.00032 s⁻¹ | 0.000981 ± 0.00024 s⁻¹ |  |
| U30C G40U | 4.56e-05 ± 6.3e-06 s⁻¹ |  |  |  | 4.17e-05 ± 6.9e-06 s⁻¹ | 5.33e-05 ± 1.1e-05 s⁻¹ |  |
| G29A G44A | 1.73e-05 ± 3.5e-06 s⁻¹ | < 1e-05 s⁻¹ |  |  |  |  |  |
| G29C C61G | 2.64e-05 ± 1e-05 s⁻¹ | < 1e-05 s⁻¹ |  |  |  |  |  |
| U30A C71U | 0.0039 ± 0.00081 s⁻¹ | 0.000127 ± 2.5e-05 s⁻¹ | 1470 ± 450 µM | 0.00116 ± 0.00024 s⁻¹ | 0.00416 ± 0.00086 s⁻¹ | 0.0021 ± 0.00045 s⁻¹ | 0.000337 ± 8e-05 s⁻¹ |
| G29U C67G | 0.000311 ± 6.2e-05 s⁻¹ |  | 3390 ± 1100 µM | 5.43e-05 ± 5.8e-06 s⁻¹ | 0.000251 ± 2.4e-05 s⁻¹ | 0.000111 ± 1.3e-05 s⁻¹ | 2.38e-05 ± 1e-05 s⁻¹ |
| G29C A64G | 0.00121 ± 0.00056 s⁻¹ | 3.98e-05 ± 1.1e-05 s⁻¹ |  | 0.000339 ± 5.2e-05 s⁻¹ | 0.00181 ± 0.00034 s⁻¹ | 0.000495 ± 0.00014 s⁻¹ | 0.000126 ± 2.9e-05 s⁻¹ |
| U30C A39G | 0.00121 ± 0.00015 s⁻¹ |  | 3930 ± 730 µM | 0.00016 ± 2.7e-05 s⁻¹ | 0.000888 ± 0.00014 s⁻¹ | 0.00046 ± 6.8e-05 s⁻¹ | 5.74e-05 ± 1.6e-05 s⁻¹ |
